This data set relates to MS2 coat protein. The data set is described as follows: apparent KD of MS2 coat protein; designed switch direction (-1 OFF switch, 1 ON switch): -1; higher = weaker reporter binding. In a few lines:
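Stalled E. coli RNA polymerase transcribed designed RNA switches on Illumina chips, which were then titrated with SNAP-549-labelled MS2 coat protein, doubling from 0.7 or 1.5 nM to 3 µM. Steps lasted from 0.8–1.5 h at the lowest concentration to 10–20 min at the highest. The apparent KD is each design's median over clusters of curve-fitted normalised fluorescence.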

[1] abbreviates: Eterna round: R95, input ligand: FMN 200 uM.
Setting [2] is: Eterna round: R95, input ligand: microRNA oligo, concentration not stated.
Setting [3] is: Eterna round: R95, input ligand: none.
Where [4] appears, read: input ligand: microRNA oligo, concentration not stated.

As for “CUAGAUCUUCGGAUCUAGUACAUGAGGAUCACCCAUGUGACGAGUAUAUCCUCAAACAAGCUUUUUGCUCGUCUUAU [Sensor v3 - Turn-off variant 1 - 21] (puzzle: Sensor v3, turn-off variant 1)”, the “apparent KD of MS2 coat protein” value reads like this: under setting [1], 243 nM; under setting [2], 237 nM; under setting [3], 172 nM.
With “CUAGCGAUUGUAGGAUAUCGGACUGUUUCAGUCUGAGAAGGACAUGAGGAUCACCCAUGUGAUGGAUCGUGAGAUCCACGCUAG [JL ENG1 3.80] (Eterna round: R96, puzzle: Exclusion NG 1)”, the “apparent KD of MS2 coat protein” value reads like this: (input ligand: FMN 200 uM) 195 nM; under setting [4], 25.7 nM; (input ligand: none) 27.9 nM.
In the case of “CUAGCGAUUGUAGGAUAUCGGACUGUUUCAGUCUGAGAAGGACAUGAGGAUCACCCAUGUGGAGGAUCGUGAGAUCCACGCUAG [JL ENG1 3.81] (Eterna round: R96, puzzle: Exclusion NG 1)”, the “apparent KD of MS2 coat protein” value is, setting by setting: (input ligand: FMN 200 uM) 136 nM; under setting [4], 24.6 nM; (input ligand: none) 34.5 nM.
The corresponding values for “CUAGGGCACAAUUAAGCGCCCUAACAUGAGGAUCACCCAUGUCAGGAUAUGUAGGCAAAGACCCUACAGAAGGGACAUGUCCUA [Artileza] (Eterna round: R96, puzzle: Exclusion NG 3)” are 393 nM, 46.3 nM and 69.2 nM.
For the sequence “CUAGUCCGAGGAUAUAUUAAGUGAAACAUGAGGAUCACCCAUGUUAUUUGAUGGAUGAAAAUAGAAGGCGGACUAG [Mat - Exclusion 5 - JL mod - D60] (puzzle: Exclusion 5)”, the “apparent KD of MS2 coat protein” value reads like this: under setting [1], 27.8 nM; under setting [2], 46.9 nM; under setting [3], 58.5 nM.
On to “CUAGUCCGAGGAUAUAUUAUGUGAAACAUGAGGAUCACCCAUGUAAUAUGAUGGAUGUAAAUAGAAGGCGGACUAG [Mat - Exclusion 5 - JL mod - D25] (puzzle: Exclusion 5)”, for which the “apparent KD of MS2 coat protein” value came out at 37.9 nM under setting [1], 17.4 nM under setting [2] and 36.1 nM under setting [3].
In the case of “CUAGUCCGAGGAUAUAUUAUGUGAUACAUGAGGAUCACCCAUGUUAUAUGAUGGAUAUUAAUAGAAGGCGGACUAG [Mat - Exclusion 5 - JL mod - D74] (puzzle: Exclusion 5)”, the “apparent KD of MS2 coat protein” value under setting [1] came out at 58 nM, the “apparent KD of MS2 coat protein” value under setting [2] is 68.3 nM and the “apparent KD of MS2 coat protein” value under setting [3] turned out to be 88 nM.
For the sequence “CUAUAUUUAGGAUAUGUUCGGCUAGACAUGAGGAUCACCCAUGUGAGCCUAGGAGCAGCCACAGAAGGGAGUAUGU [Eternabot (L2) Solution 62] (Eterna round: R97, puzzle: Exclusion 5)”, the “apparent KD of MS2 coat protein” value (input ligand: FMN 200 uM) came to 27.6 nM and the “apparent KD of MS2 coat protein” value (input ligand: none) is 32.8 nM.
Turning to “CUAUGAGCUGAGGAUAUCUGCAGGUUGGGCCUGGGAGAAGGCGGCACAUGAGGAUCACCCAUGUGACCGAAAUA [Mod2 Ex6 A.17 by Nando] (Eterna round: R97, puzzle: Exclusion 6)”, the “apparent KD of MS2 coat protein” value is, setting by setting: (input ligand: FMN 200 uM) 16.3 nM; (input ligand: none) 12.7 nM.
Take “CUAUGUUAGCAGGAUAUGCCAUUAUUCCUUUUCGCAGAAGGGCUUACAUGAGGAUCACCCAUGUUACAUUUCUU [JR_E6_Sub085] (puzzle: Exclusion 6)”: the “apparent KD of MS2 coat protein” value under setting [2] was 13.3 nM.
Same read-out and setting: the same measure for “CUAUUACGAGGAUAUGAUUUAAAUAACAUGAGGAUCACCCAUGUUUUUACGUUAUUAUGUUCAGAAGGCGUAUUGU [JR_E5_Sub025] (puzzle: Exclusion 5)”: 28 nM.
Turning to “CUAUUCCGAGGAUAUACAUGAGGAUCACCCAUGUCGGGCCUCUGCGUUUAGCGCGAAAGUAGAAGGUGGGUUUC [JL Riri mod 9] (Eterna round: R96, puzzle: Exclusion 3)”, the “apparent KD of MS2 coat protein” value stood at 35.5 nM (input ligand: FMN 200 uM), 26.8 nM under setting [4] and 32 nM (input ligand: none).
Regarding “CUAUUCCGAGGAUAUACAUGAGGAUCACCCAUGUCGGGCCUCUGCGUUUAGCGCGAAAGUAGAAGGUGGGUUUC [JL Riri mod 9] (puzzle: Exclusion 3)”, the “apparent KD of MS2 coat protein” value under setting [2] stood at 28.3 nM.
For “CUAUUGGCAGGAUAUGCUUUUUUUGACAUGAGGAUCACCCAUGUGAUGCAUUUUGGGUUUGCAGAAGGGCCUGAGU [JR_E5_Sub037] (puzzle: Exclusion 5)”, the “apparent KD of MS2 coat protein” value under setting [2] stood at 64.9 nM.
Still for that read-out and setting: the same measure for “CUAUUGUGAGGAUAUCAGUAGUAAUACAAUAGUAUUACUACUGAGAAGGCACAUGAGGAUCACCCAUGUUCCUU [Mat - Exclusion 4 - Mod of Omei - D76] (puzzle: Exclusion 4)”: 14.4 nM.
As to “CUCAUGUGAGGAUAUAGUGCGUCUUCUAUUAUUAUUGAGUACUAGAAGGCACAUGAGGAUCACCCAUGUAGCAC [Ex4 - 3 - 45] (Eterna round: R96, puzzle: Exclusion 4)”, the “apparent KD of MS2 coat protein” value runs as follows: under setting [4], 29.2 nM; (input ligand: none) 57.6 nM.
With “CUCAUGUGAGGAUAUAGUGCGUCUUCUAUUAUUAUUGAGUACUAGAAGGCACAUGAGGAUCACCCAUGUAGCAC [Ex4 - 3 - 45] (puzzle: Exclusion 4)”, the “apparent KD of MS2 coat protein” value under setting [2] worked out at 41.9 nM.
As for “CUCAUGUGUGAGGAUAUUAGAGCGAGCGUGUGAUAAGAAGGCACAACAUGAGGAUCACCCAUGUAGAGAGAGUG [Alacar 1st] (Eterna round: R97, puzzle: Exclusion 6)”, the “apparent KD of MS2 coat protein” value by setting is: (input ligand: FMN 200 uM) 28.9 nM; (input ligand: none) 69.6 nM.
The matching figures for “CUCAUGUUGGAGGAUAUAUUUGUCAACCGACCGAUAGAAGGCCACACAUGAGGAUCACCCAUGUCAUCCGGAGA [Eternabot (Original) Solution 50] (Eterna round: R97, puzzle: Exclusion 6)”: 28.3 nM and 255 nM.
With “CUCCUACAUGAGGAUCACCCAUGUCAGGAUAUCUCAGUGGCGCCUAAAUGUGCCACCCAGAGAAGGGACGUGCA [Zainceve] (puzzle: Exclusion 1)”, the “apparent KD of MS2 coat protein” value under setting [2] stood at 12.3 nM.
With “CUCCUCAUGGCGCCUAAACACAUGAGGAUCACCCAUGUACAGGCUUCUUGCCGUCUUAUAAUAAAACCGAGGAUGCG [Onleorqula] (puzzle: Sensor v3, turn-off variant 1)”, the “apparent KD of MS2 coat protein” value under setting [1] was found to be 43.8 nM, the “apparent KD of MS2 coat protein” value under setting [2] stood at 283 nM and the “apparent KD of MS2 coat protein” value under setting [3] came to 47.3 nM.
Turning to “CUCCUCGCUUAGGAUAUGUACACUUGCACCGUGACAGAAGGAAGCACUUGAGGAUCACCCAAGUGCCAGGGUGC [Geena] (Eterna round: R97, puzzle: Exclusion 6)”, the “apparent KD of MS2 coat protein” value by setting is: (input ligand: FMN 200 uM) 14.4 nM; (input ligand: none) 16.7 nM.
With “CUCCUCGUGGCGCCUAAACACAUGAGGAUCACCCAUGUACAGGCUUUUUGCCGUCUUAUAAUAAAACCGAGGAGACG [Ataesarxe] (puzzle: Sensor v3, turn-off variant 1)”, the “apparent KD of MS2 coat protein” value is, setting by setting: under setting [1], 16.6 nM; under setting [2], 18.8 nM; under setting [3], 16.6 nM.
In the case of “CUCGCAUUAGGAUAUACAUGAGGAUCACCCAUGUAUAAACCCAGGGUCAACGCCAUAUGUAGAAGGAGUAGCGA [Eternabot (L1) Solution 59] (Eterna round: R97, puzzle: Exclusion 3)”, the “apparent KD of MS2 coat protein” value is 22.2 nM (input ligand: FMN 200 uM) and 17 nM (input ligand: none).
In the case of “CUCGGCUAAGGAUAUGCAUAGCGGGCCAAGUCUUCUCAAGUACAUGAGGAUCACCCAUGUAGAAGGUAGUUAAC [EX2 B.29] (Eterna round: R97, puzzle: Exclusion 2)”, the “apparent KD of MS2 coat protein” value stood at 22.4 nM (input ligand: FMN 200 uM) and 24.5 nM (input ligand: none).
Consider “CUCGGGCUGGUGAGGAUAUCGGGCUCUAAAGGGCUCGAGAAGGCACAUGAGGAUCACCCAUGUAAUGGCUCGGG [-29.3, -27.9 kcal, A 23%, 4-4bis] (Eterna round: R97, puzzle: Brourd's mod of Exclusion 4)”, for which the “apparent KD of MS2 coat protein” value reads like this: (input ligand: FMN 200 uM) 17.3 nM; (input ligand: none) 24.5 nM.
For “CUCGUGGUGAAGGAUAUCCGCGAGAAAAUAAAAGGAGAAGGUCACACAUGAGGAUCACCCAUGUGAUGAAGAAA [Anesanza] (puzzle: Exclusion 6)”, the “apparent KD of MS2 coat protein” value runs as follows: under setting [1], 16.4 nM; under setting [2], 11.6 nM; under setting [3], 11.9 nM.
For the sequence “CUCGUGUAAGGAUAUAUGAGUCACGGAAAUAAACCGUGAAGAUAGAAGGUACAUGAGGAUCACCCAUGUAAAAC [Mod of Anonveat 4 - Jieux - Exclusion 4] (Eterna round: R97, puzzle: Exclusion 4)”, the “apparent KD of MS2 coat protein” value (input ligand: FMN 200 uM) worked out at 124 nM and the “apparent KD of MS2 coat protein” value (input ligand: none) was found to be 99.4 nM.
In the case of “CUCGUGUCGGAGGAUAUCCAGCGCGAAAAUAAAGGAGAAGGCCGCACAUGAGGAUCACCCAUGUAACAUGGUCC [Onbier] (puzzle: Exclusion 6)”, the “apparent KD of MS2 coat protein” value under setting [2] was determined as 44.8 nM.
Consider “CUCGUGUGAGGAUAUCUAUUCCACGGACGGGAGUCUUGAUGAGAGAAGGCACAUGAGGAUCACCCAUGUAAUAA [Laveinxe] (puzzle: Exclusion 4)”, for which the “apparent KD of MS2 coat protein” value under setting [2] came out at 105 nM.
Take “CUCUUGAGUCAGGAUAUCGAGAGGCUAAUAAAACGAGAAGGGACUACAUGAGGAUCACCCAUGUGAUCGCAAAA [Geonge] (Eterna round: R97, puzzle: Exclusion 6)”: the “apparent KD of MS2 coat protein” value (input ligand: FMN 200 uM) amounted to 433 nM and the “apparent KD of MS2 coat protein” value (input ligand: none) amounted to 61.7 nM.
Consider “CUCUUGGCAGGAUAUGCUCUCUUAGACAUGAGGAUCACCCAUGUGUUCAUUCUUUCUUUUGCAGAAGGGCCUUAAC [JR_E5_Sub046] (Eterna round: R96, puzzle: Exclusion 5)”, for which the “apparent KD of MS2 coat protein” value was found to be 128 nM (input ligand: FMN 200 uM), 57.9 nM under setting [4] and 76.9 nM (input ligand: none).
For the sequence “CUCUUGGCAGGAUAUGCUCUCUUAGACAUGAGGAUCACCCAUGUGUUCAUUCUUUCUUUUGCAGAAGGGCCUUAAC [JR_E5_Sub046] (puzzle: Exclusion 5)”, the “apparent KD of MS2 coat protein” value under setting [2] turned out to be 65.2 nM.

These data come from the supplement of paper PMC9170038.
